Test results from IntAct's records for PubMed 18441008.

B1: Steroid hormone receptor ERR1 (Homo sapiens), P11474 (parent)
chain: MSSQVVGIEPLYIKAEPASPDSPKGSSETETEPPVALAPGPAPTRCLPGHKEEEDGEGAGPGEQGGGKLVLSSLPKRLCLVCGDVASGYHYGVASCEACKAFFKRTIQGSIEYSCPASNECEITKRRRKACQACRFTKCLRVGMLKEGVRLDRVRGGRQKYKRRPEVDPLPFPGPFPAGPLAVAGGPRKTAAPVNALVSHLLVVEPEKLYAMPDPAGPDGHLPAVATLCDLFDREIVVTISWAKSIPGFSSLSLSDQMSVLQSVWMEVLVLGVAQRSLPLQDELAFAEDLVLDEEGARAAGLGELGAALLQLVRRLQALRLEREEYVLLKALALANSDSVHIEDAEAVEQLREALHEALLEYEAGRAGPGGGAERRRAGRLLLTLPLLRQTAGKVLAHFYGVKLEGKVPMHKLFLEMLEAMMD
partner: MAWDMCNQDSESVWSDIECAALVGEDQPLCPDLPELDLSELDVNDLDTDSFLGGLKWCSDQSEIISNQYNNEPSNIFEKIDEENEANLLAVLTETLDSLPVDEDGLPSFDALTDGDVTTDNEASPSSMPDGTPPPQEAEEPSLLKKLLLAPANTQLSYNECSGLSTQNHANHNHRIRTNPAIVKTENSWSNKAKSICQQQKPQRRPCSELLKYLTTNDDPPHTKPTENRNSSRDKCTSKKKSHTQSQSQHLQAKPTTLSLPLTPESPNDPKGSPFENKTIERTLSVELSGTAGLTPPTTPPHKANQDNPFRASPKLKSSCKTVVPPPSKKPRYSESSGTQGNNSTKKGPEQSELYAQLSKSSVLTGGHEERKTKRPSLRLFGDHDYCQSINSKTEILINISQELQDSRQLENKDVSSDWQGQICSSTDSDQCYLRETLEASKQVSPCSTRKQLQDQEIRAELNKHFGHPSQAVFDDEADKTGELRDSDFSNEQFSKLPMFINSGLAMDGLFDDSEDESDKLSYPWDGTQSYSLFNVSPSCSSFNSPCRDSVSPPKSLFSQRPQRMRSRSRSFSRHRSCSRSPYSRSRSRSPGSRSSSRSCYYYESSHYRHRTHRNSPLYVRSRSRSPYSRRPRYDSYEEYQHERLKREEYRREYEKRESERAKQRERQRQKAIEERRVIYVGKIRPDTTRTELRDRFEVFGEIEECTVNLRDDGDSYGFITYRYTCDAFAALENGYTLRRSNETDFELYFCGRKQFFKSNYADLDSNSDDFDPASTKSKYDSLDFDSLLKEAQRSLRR
B2: Estrogen receptor (Homo sapiens), P03372 (parent)
chain: MTMTLHTKASGMALLHQIQGNELEPLNRPQLKIPLERPLGEVYLDSSKPAVYNYPEGAAYEFNAAAAANAQVYGQTGLPYGPGSEAAAFGSNGLGGFPPLNSVSPSPLMLLHPPPQLSPFLQPHGQQVPYYLENEPSGYTVREAGPPAFYRPNSDNRRQGGRERLASTNDKGSMAMESAKETRYCAVCNDYASGYHYGVWSCEGCKAFFKRSIQGHNDYMCPATNQCTIDKNRRKSCQACRLRKCYEVGMMKGGIRKDRRGGRMLKHKRQRDDGEGRGEVGSAGDMRAANLWPSPLMIKRSKKNSLALSLTADQMVSALLDAEPPILYSEYDPTRPFSEASMMGLLTNLADRELVHMINWAKRVPGFVDLTLHDQVHLLECAWLEILMIGLVWRSMEHPGKLLFAPNLLLDRNQGKCVEGMVEIFDMLLATSSRFRMMNLQGEEFVCLKSIILLNSGVYTFLSSTLKSLEEKDHIHRVLDKITDTLIHLMAKAGLTLQQQHQRLAQLLLILSHIRHMSNKGMEHLYSMKCKNVVPLYDLLLEMLDAHRLHAPTSRGGASVEETDQSHLATAGSTSSHSLQKYYITGEAEGFPATV
partner: B1 partner

Variants of: B1
Details: with prgc1_human PPARGC1A

effect of a mutation on the interaction | Variant
decreasing interaction strength | MSSQVVGIEPLYIKAEPASPDSPKGSSETETEPPVALAPGPAPTRCLPGHKEEEDGEGAGPGEQGGGKLVLSSLPKRLCLVCGDVASGYHYGVASCEACKAFFKRTIQGSIEYSCPASNECEITKRRRKACQACRFTKCLRVGMLKEGVRLDRVRGGRQKYKRRPEVDPLPFPGPFPAGPLAVAGGPRKTAAPVNALVSHLLVVEPEKLYAMPDPAGPDGHLPAVATLCDLFDREIVVTISWAKSIPGFSSLSLSDQMSVLQSVWMEVLVLGVAQRSLPLQDELAFAEDLVLDEEGARAAGLGELGAALLQLVRRLQALRLEREEYVLLKALALANSDSVHIADAEAVEQLREALHEALLEYEAGRAGPGGGAERRRAGRLLLTLPLLRQTAGKVLAHFYGVKLEGKVPMHKLFLEMLEAMMD [E343A]

Variants of: B1
Details: with prgc1_human PPARGC1A
Remark: another data set of the same source

effect of a mutation on the interaction | Variant
with no effect | MSSQVVGIEPLYIKAEPASPDSPKGSSETETEPPVALAPGPAPTRCLPGHKEEEDGEGAGPGEQGGGKLVLSSLPKRLCLVCGDVASGYHYGVASCEACKAFFKRTIQGSIEYSCPASNECEITKRRRKACQACRFTKCLRVGMLKEGVRLDRVRGGRQKYKRRPEVDPLPFPGPFPAGPLAVAGGPRKTAAPVNALVSHLLVVEPEKLYAMPDPAGPDGHLPAVATLCDLFDREIVVTISWAKSIPGFSSLSLSDQMSVLQSVWMEVLVLGVAQRSLPLQDELAFAEDLVLDEEGARAAGLGELGAALLQLVRRLQALRLEREEYVLLKALALANSDSVHIADAEAVEQLREALHEALLEYEAGRAGPGGGAERRRAGRLLLTLPLLRQTAGKVLAHFYGVKLEGKVPMHKLFLEMLEAMMD [E343A]

Variants of: B1
Details: with prgc1_human PPARGC1A
Remark: another data set of the same source

effect of a mutation on the interaction | Variant
decreasing interaction strength | MSSQVVGIEPLYIKAEPASPDSPKGSSETETEPPVALAPGPAPTRCLPGHKEEEDGEGAGPGEQGGGKLVLSSLPKRLCLVCGDVASGYHYGVASCEACKAFFKRTIQGSIEYSCPASNECEITKRRRKACQACRFTKCLRVGMLKEGVRLDRVRGGRQKYKRRPEVDPLPFPGPFPAGPLAVAGGPRKTAAPVNALVSHLLVVEPEKLYAMPDPAGPDGHLPAVATLCDLFDREIVVTISWAKSIPGFSSLSLSDQMHVLQSVWMEVLVLGVAQRSLPLQDELAFAEDLVLDEEGARAAGLGELGAALLQLVRRLQALRLEREEYVLLKALALANSDSVHIEDAEAVEQLREALHEALLEYEAGRAGPGGGAERRRAGRLLLTLPLLRQTAGKVLAHFYGVKLEGKVPMHKLFLEMLEAMMD [S259H]

Variants of: B2
Details: with prgc1_human PPARGC1A

effect of a mutation on the interaction | Variant
increasing interaction strength | MTMTLHTKASGMALLHQIQGNELEPLNRPQLKIPLERPLGEVYLDSSKPAVYNYPEGAAYEFNAAAAANAQVYGQTGLPYGPGSEAAAFGSNGLGGFPPLNSVSPSPLMLLHPPPQLSPFLQPHGQQVPYYLENEPSGYTVREAGPPAFYRPNSDNRRQGGRERLASTNDKGSMAMESAKETRYCAVCNDYASGYHYGVWSCEGCKAFFKRSIQGHNDYMCPATNQCTIDKNRRKSCQACRLRKCYEVGMMKGGIRKDRRGGRMLKHKRQRDDGEGRGEVGSAGDMRAANLWPSPLMIKRSKKNSLALSLTADQMVSALLDAEPPILYSEYDPTRPFSEASMMGLLTNLADRELVHMINWAKRVPGFVDLTLHDQMHLLQCAWLEILMIGLVWRSMEHPGKLLFAPNLLLDRNQGKCVEGMVEIFDMLLATSSRFRMMNLQGEEFVCLKSIILLNSGVYTFLSSTLKSLEEKDHIHRVLDKITDTLIHLMAKAGLTLQQQHQRLAQLLLILSHIRHMSNKGMEHLYSMKCKNVVPLYDLLLEMLDAHRLHAPTSRGGASVEETDQSHLATAGSTSSHSLQKYYITGEAEGFPATV [V376M;E380Q]
